# Patent publication US20040091495A1 (published 2004)
# B1: GST:Hic^39-261 fusion protein (other)
# chain: EKEVTTQVATSSNKANKSQTEHMKAAKQVDEYIEKMLSEIQLDRRKHTQNVGLLTKLGAIKTEYLRGLSVSKEKSTAELPSEIKEKLTAAFEQFKKDTLKSGKKVAEAQKKAKDQKEAKQEIEALIVKHKGREIDLDRKKAKAAVTEHLKKLLNDIEKNLKKEQHTHTVELIKNLKDIEKTYLHKLDESTQKAQLQKLIAESQSKLDEAFSKFKNGLSSSSNS
# notes: main band 54 kDa, partly degraded; Vector-derived residues after the EcoRI site, if any, are not described; also called fusion between GST and the NH2-terminal Hic region; not shown: glutathione S-transferase (GST) encoded by vector pGEX-5X-3 (Pharmacia Biotech); vector-encoded residues between GST and the BamHI cloning site of pGEX-5X-3
# Molecular target: T1, complement factor H (human, UniProt P08603 19-1231, 125I-labelled (Iodobeads) in the blot and bacterial binding assays)
# T1 construct: also called fH; FH
# Assay: SPR (Biacore), GST:Hic39-261 captured on anti-GST antibody chip, fH as analyte, Langmuir 1:1 model, mean ± SD of three experiments
# T1 sequence (P08603 19-1231 limits assumed): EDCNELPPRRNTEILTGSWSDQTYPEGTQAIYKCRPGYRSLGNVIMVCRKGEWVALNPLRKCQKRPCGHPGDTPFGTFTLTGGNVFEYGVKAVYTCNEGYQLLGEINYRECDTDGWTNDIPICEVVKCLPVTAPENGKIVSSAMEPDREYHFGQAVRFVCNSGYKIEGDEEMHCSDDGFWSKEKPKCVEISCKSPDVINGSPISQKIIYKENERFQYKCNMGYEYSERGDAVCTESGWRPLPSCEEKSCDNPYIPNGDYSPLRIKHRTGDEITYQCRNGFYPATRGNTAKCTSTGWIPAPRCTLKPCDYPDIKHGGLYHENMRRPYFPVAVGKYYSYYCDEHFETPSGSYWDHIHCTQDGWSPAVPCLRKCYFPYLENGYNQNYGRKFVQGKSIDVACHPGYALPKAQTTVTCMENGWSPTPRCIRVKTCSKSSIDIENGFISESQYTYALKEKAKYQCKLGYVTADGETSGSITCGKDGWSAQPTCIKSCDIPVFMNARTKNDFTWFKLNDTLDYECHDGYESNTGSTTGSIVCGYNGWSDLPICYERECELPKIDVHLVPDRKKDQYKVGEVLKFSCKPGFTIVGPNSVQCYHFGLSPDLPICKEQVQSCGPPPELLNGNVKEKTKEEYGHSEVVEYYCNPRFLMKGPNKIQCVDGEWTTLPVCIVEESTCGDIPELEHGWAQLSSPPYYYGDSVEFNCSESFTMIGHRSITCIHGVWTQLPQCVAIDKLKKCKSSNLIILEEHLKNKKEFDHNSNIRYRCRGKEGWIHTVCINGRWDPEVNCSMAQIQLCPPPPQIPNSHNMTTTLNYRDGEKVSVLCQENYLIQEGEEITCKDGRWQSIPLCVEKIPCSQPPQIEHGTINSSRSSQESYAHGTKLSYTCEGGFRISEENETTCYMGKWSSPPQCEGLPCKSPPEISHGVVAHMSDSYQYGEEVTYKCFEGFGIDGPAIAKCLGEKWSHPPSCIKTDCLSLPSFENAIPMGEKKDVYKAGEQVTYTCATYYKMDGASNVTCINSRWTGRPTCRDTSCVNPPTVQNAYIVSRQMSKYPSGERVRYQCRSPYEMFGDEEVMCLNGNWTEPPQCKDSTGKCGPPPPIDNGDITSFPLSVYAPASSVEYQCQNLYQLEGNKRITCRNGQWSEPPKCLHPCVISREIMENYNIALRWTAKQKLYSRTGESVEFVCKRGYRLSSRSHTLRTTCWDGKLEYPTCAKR
binder,measurement,value
B1,Ka,5e+07 M⁻¹
same,Kd,23 nM
same,koff,0.00061 s⁻¹
same,kon,28000 M⁻¹ s⁻¹
